Measurements as given in the Immune Epitope Database (IEDB).
Each block holds one sequence with its values, some of them ahead of it.

Experiments:
HLA-B*83:01 = assay: IEDB peptide-MHC binding, purified MHC/competitive/fluorescence; filed as Kd, often an IC50 or EC50 that approximates it; ≥ and ≤ were set here for values at or beyond the usual limits of such assays
HLA-C*14:02 [1] = assay: as above
HLA-A*32:15 = assay: as above; details: source organism: Mycobacterium tuberculosis variant bovis BCG str. Pasteur 1173P2
HLA-B*45:06 = assay: as above
HLA-B*46:01 = assay: as above; details: source organism: Mycobacterium tuberculosis variant bovis BCG str. Pasteur 1173P2
HLA-B*15:42 = assay: as above
HLA-A*02:03 = assay: IEDB peptide-MHC binding, purified MHC/direct/fluorescence; filed as Kd, often an IC50 or EC50 that approximates it; ≥ and ≤ were set here for values at or beyond the usual limits of such assays; details: source organism: Mycobacterium tuberculosis str. Haarlem
HLA-C*05:01 = assay: as above; details: source organism: Mycobacterium tuberculosis variant bovis BCG str. Pasteur 1173P2
HLA-C*08:02 = assay: as above
HLA-A*69:01 = assay: as above; details: source organism: Mycobacterium tuberculosis
HLA-C*14:02 [2] = assay: as above; details: source organism: Homo sapiens
HLA-B*44:03 = assay: IEDB peptide-MHC binding, purified MHC/competitive/fluorescence; ≥ and ≤ were set here for values at or beyond the usual limits of such assays; details: source organism: Homo sapiens
HLA-A*25:01 = assay: as above; details: source organism: Homo sapiens
HLA-A*68:02 = assay: as above; details: source organism: Homo sapiens
HLA-B*51:01 = assay: as above; details: source organism: Homo sapiens
HLA-A*03:01 = assay: as above; details: source organism: Homo sapiens
HLA-B*58:01 = assay: as above; details: source organism: Homo sapiens
HLA-B*14:02 = assay: as above; details: source organism: Homo sapiens
HLA-A*02:01 = assay: as above; details: source organism: Homo sapiens
HLA-B*35:01 = assay: as above; details: source organism: Homo sapiens
HLA-B*08:01 = assay: as above; details: source organism: Homo sapiens
HLA-B*07:02 = assay: as above; details: source organism: Homo sapiens
HLA-B*37:01 = assay: as above; details: source organism: Homo sapiens
HLA-A*01:01 [3] = assay: as above; details: source organism: Homo sapiens
HLA-A*24:02 = assay: as above; details: source organism: Homo sapiens
HLA-B*18:01 = assay: as above; details: source organism: Homo sapiens
HLA-A*29:02 [4] = assay: as above; details: source organism: Homo sapiens
HLA-B*40:02 = assay: as above; details: source organism: Homo sapiens
HLA-B*53:01 = assay: as above; details: source organism: Homo sapiens
HLA-A*11:01 = assay: as above; details: source organism: Homo sapiens
HLA-A*31:01 = assay: as above; details: source organism: Homo sapiens
HLA-C*06:02 = assay: IEDB peptide-MHC binding, purified MHC/competitive/fluorescence; filed as Kd, often an IC50 or EC50 that approximates it; ≥ and ≤ were set here for values at or beyond the usual limits of such assays; details: source organism: Corynebacterium glutamicum ATCC 13032
HLA-A*68:23 = assay: as above; details: source organism: Corynebacterium glutamicum ATCC 13032
HLA-C*15:02 = assay: IEDB peptide-MHC binding, purified MHC/direct/fluorescence; filed as Kd, often an IC50 or EC50 that approximates it; ≥ and ≤ were set here for values at or beyond the usual limits of such assays; details: source organism: Corynebacterium glutamicum ATCC 13032
HLA-A*80:01 = assay: IEDB peptide-MHC binding, purified MHC/competitive/fluorescence; filed as Kd, often an IC50 or EC50 that approximates it; ≥ and ≤ were set here for values at or beyond the usual limits of such assays; details: source organism: Rattus norvegicus
HLA-C*04:01 = assay: as above; details: source organism: Rattus norvegicus
HLA-A*01:01 [5] = assay: as above; details: source organism: Rattus norvegicus
HLA-A*29:02 [6] = assay: as above; details: source organism: Rattus norvegicus
[7] = source organism: Mycobacterium tuberculosis variant bovis BCG str. Pasteur 1173P2
[8] = source organism: Corynebacterium glutamicum ATCC 13032
[9] = source organism: Rattus norvegicus

Sequence: FMFDYIPPV
Kd (HLA-B*83:01; [7]): ≥ 5000 nM | Kd (HLA-C*14:02 [1]; [7]): 5.7 nM | Kd (HLA-A*32:15): 203 nM | Kd (HLA-B*45:06; [7]): ≥ 5000 nM | Kd (HLA-B*46:01): 10.1 nM | Kd (HLA-B*15:42; [7]): 3860 nM | Kd (HLA-A*02:03): ≤ 1 nM | Kd (HLA-C*05:01): ≥ 20000 nM | Kd (HLA-C*08:02; [7]): 368 nM | Kd (HLA-A*69:01): 1.3 nM

Kd (HLA-C*14:02 [2]): 792 nM | IC50 (HLA-B*44:03): ≥ 20000 nM | IC50 (HLA-A*25:01): ≥ 20000 nM | IC50 (HLA-A*68:02): 224 nM | IC50 (HLA-B*51:01): 685 nM | IC50 (HLA-A*03:01): ≥ 20000 nM | IC50 (HLA-B*58:01): ≥ 20000 nM | IC50 (HLA-B*14:02): ≥ 20000 nM | IC50 (HLA-A*02:01): ≥ 20000 nM | IC50 (HLA-B*35:01): 8.5 nM | IC50 (HLA-B*08:01): 1080 nM | IC50 (HLA-B*07:02): 112 nM | IC50 (HLA-B*37:01): ≥ 20000 nM | IC50 (HLA-A*01:01 [3]): ≥ 20000 nM | IC50 (HLA-A*24:02): ≥ 20000 nM | IC50 (HLA-B*18:01): 422 nM | IC50 (HLA-A*29:02 [4]): ≥ 20000 nM | IC50 (HLA-B*40:02): 734 nM | IC50 (HLA-B*53:01): 221 nM | IC50 (HLA-A*11:01): ≥ 20000 nM | IC50 (HLA-A*31:01): ≥ 20000 nM
Sequence: FPHTELANL

Sequence: RIFPATHYV
Kd (HLA-B*83:01; [8]): ≥ 5000 nM | Kd (HLA-B*45:06; [8]): ≥ 5000 nM | Kd (HLA-C*06:02): 35.7 nM | Kd (HLA-B*15:42; [8]): ≥ 5000 nM | Kd (HLA-A*68:23): 197 nM | Kd (HLA-C*15:02): 17 nM | Kd (HLA-C*08:02; [8]): ≥ 20000 nM | Kd (HLA-A*69:01): 18.8 nM

Sequence: YYRYPTGESY
Kd (HLA-B*83:01; [9]): ≥ 5000 nM | Kd (HLA-C*14:02 [1]; [9]): ≤ 0.1 nM | Kd (HLA-A*80:01): 1460 nM | Kd (HLA-C*04:01): ≥ 5000 nM | Kd (HLA-B*45:06; [9]): ≥ 5000 nM | Kd (HLA-A*01:01 [5]): ≥ 20000 nM | Kd (HLA-A*29:02 [6]): ≤ 0.1 nM | Kd (HLA-B*15:42; [9]): ≥ 5000 nM
